Test results reported in the supplement of paper PMC12636428.

Test system: Saccharomyces cerevisiae
Experiment: transcriptional activation domain activity (GFP:mCherry ratio, weighted mean of sorted bins, harmonized to initial dataset scale) (arbitrary fluorescence ratio units); higher = stronger transcriptional activation
Settings: beta-estradiol 1 µM; induction time 4 h
Method in brief: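 After a 1:5 dilution into SC with 1 uM beta-estradiol and 4 hours at 30 °C, yeast diploids carrying a GFP reporter and URA3-integrated barcoded tiles were sorted into 8 bins by GFP:mCherry ratio. The tiles were fused to an estradiol-inducible synthetic transcription factor. Barcodes were sequenced, tiles below 50 reads were discarded, and activation activity was taken as the read-weighted mean of bin median fluorescence, averaged across barcodes and linearly mapped onto the initial dataset scale.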

DSLSNSNDVLNNTPNSSTSMDWLDNVIYTNRFVSGDDGSNSKTKNLDSNMFSN
transcriptional activation domain activity: 66900

PDRPCYSAIVRISTSRLHFYECKLYAHAFFQGLRYFMYHWRWTTTLVLMSLFL
transcriptional activation domain activity: 47200

AAEEAVKVAVVVEGAKKRRGRPRKDAVDEEGTVLGALADATNTQTATAAPVPM
transcriptional activation domain activity: 24300

YLIGFIGFVMSLQKQYLKSQFGLFCWVHMSLLVIVVSSHFIINNIFEGLIWFW
transcriptional activation domain activity: 79300

PHTYNVILFLVIHDPEADVINRVKAYVTYVLRTMPKQLRLESFEMVFIRVLHL
transcriptional activation domain activity: 54600

SRPPRPSASSSTTPRARSRSTARPSRARWPRPRCPSSGGCTRACRTRRCTRRM
transcriptional activation domain activity: 45300

SRSRSRDRHRRSSRRHRRRSPSASRSRSASRSRRRRHSKRRSREKRHSSRRHR
transcriptional activation domain activity: 30200

LFLFFLFVFCAYPFWLVRCFLLALLLSLKDLVQIFLFLITTLCCDISEMWSFV
transcriptional activation domain activity: 42800

MESVTCFYFHLFRFFHSRLLVFVLMLCFESIVSLFRFLCIFVFSLFFYIFFFF
transcriptional activation domain activity: 75500

MLFLMYIFYLCRCLLLFFLTDIMISLLLPSLFSPLITLFLFFTLFKYMYIYAN
transcriptional activation domain activity: 65400

MAIYEAASTPGSSAGSHADKPYHSKRPHRKSRKGCRTCKARKVKCDEVRPSCT
transcriptional activation domain activity: 27900

NGELPHENGGRETKVKFEGTAAPKESRIGQMRQHLLLLAESQHRFIRHCGTHG
transcriptional activation domain activity: 29600

FSSINANPFDLDEQLAIELSAFADDSFIFPDEDKPSNNNNNSNNGNDDHSNHD
transcriptional activation domain activity: 80300

LFTHLCLNPQLLRSISSVIFLPRITAPIHVYLYSILIYLQFKMLLLYTLFHIM
transcriptional activation domain activity: 77200

RAYQQPILEYCRDAIDKESATTLSDERTVSKDDAEAKYSRVISACISLLASLL
transcriptional activation domain activity: 30600

FLMVLCLFCIVYLFFSCFPFFAMSYVLLLLFCFYCILFYFSCPFCFVICNSVV
transcriptional activation domain activity: 54000

DDDIAMFDSLATTQPIDIAASNQQNGEIAQLWDFNVDQFNMTPSNSSGSATIS
transcriptional activation domain activity: 91100

AIFMSDGSQALCRLIYLIGIATRFFGLSMMLCIVVDVLNLVTFYLNVFYLIQW
transcriptional activation domain activity: 47500

ARGEKNPPMTQKDLATKVNEKPSVINDYESGRAVPDQKVLAKLERALGVKLRG
transcriptional activation domain activity: 50400

KWHSTMQSAAARGTRVLHDKRRSRVKREGGEGGGGKEERRRQRRRTCATCTRL
transcriptional activation domain activity: 29700

DKEAKADVEEKPKTPRGRKRKTAEEVNGEEAQTEKEPPVKKTKPASKAKPASK
transcriptional activation domain activity: 42600

PFSNFFSNLFLYLFFDLFSNFFFIFSLPFILFHIISSIFNLNFNLLLLLIHLF
transcriptional activation domain activity: 65800

WSFLSFSFLPFPLSSFLLLSYPPPSFFLLPPSPFFFAVLLHLFTLLLFSLLLL
transcriptional activation domain activity: 63900

MGPISFFFLFWRYYRLYCLFFVFFFFSTGLRWHDTLFHFLSFLLLGLPLLKRS
transcriptional activation domain activity: 82100

PELIGFCCFSMRFFVFIDLLGTLILPATVVYLIYLIIVVATRASAFPQIAIIM
transcriptional activation domain activity: 59400

VSTCLIKFLALIIEDLHHYFDPFQLKLIGVLVTWYEGAFAKSLFPGELISSEA
transcriptional activation domain activity: 52400

KTDKSKDRKTKKKKSHKATGSERPSSSRGEEPEKDEEPEKKEKRRKKRKEEKR
transcriptional activation domain activity: 17900

ANHQVYADWWYAWCLTYYTGTYKDVFIVLKKSLKWVPVLGWGMQSFRFIFLAR
transcriptional activation domain activity: 79000

DDAVVESFFSSSTDSTPMFEYENLEDNSKEWTSLFDNDIPVTTDDVSLADKAI
transcriptional activation domain activity: 114000

LWQYMEFRIMIYLFLALCFIPISIFVIFCSCLSSILFMISAGIWIFFGTIAFL
transcriptional activation domain activity: 51200

MIFIYMIFIYVIFLFLYFYIFFYFLFFIFIIFICCYFIFLYYLFSYFPFFLFY
transcriptional activation domain activity: 43500

ITNFSHPVSWLGTISPLSSLISSSLSFLSEFFSLFPLFFSFFLLFSPSISSWF
transcriptional activation domain activity: 67500

FLWYMLFLPLIIPRLSCSWLRLLCVQSGIFGEPIFFRLWICSIIYVVGHCWVL
transcriptional activation domain activity: 31200

KDGKQRRTREAAGSGHARRRRRGDRERRKGQPRAGRPGAKAKGKAGGTGAKQE
transcriptional activation domain activity: 15700

KAAPAPAASGDEGGEDEDEEDGDAVARRHQSKRSRRGIVVEESDEEDEGEPAA
transcriptional activation domain activity: 41100

MSPLPSPLSFPLFLFFSLSLSNLVCMPHPLLSSLSLSTPPALFFLYLFFLATL
transcriptional activation domain activity: 55100

MGWFTFAFWYPPHLLYFLFYLPPPPLFPSHSLEFFSFCICNLTMFILSTFFFA
transcriptional activation domain activity: 50200

GPFQSSAQVDGTLDGDLLQELLIAFLSRKKRFVVWKVMKVLFATLLKRMGAHD
transcriptional activation domain activity: 55600

LIKKVKNEKQMYPILVCVLRLYDYVTHIMLIECQCEGIQSAFVSNQLSVKDTG
transcriptional activation domain activity: 52700

MGREHSAPLDSSSKQGAPRRTQRAQLPHNSLCRMGLKTNMKWTHSIRQDKRAE
transcriptional activation domain activity: 35600

VAVTFHTEPHRLVSIIPALISIWDYILGLSPAELSSCTGIHWCIYILTIIFGF
transcriptional activation domain activity: 55400

ESSEEDEEGGEGEGRKAKRNRMALSCKECKRRKIKCDRAMPSCGPCSKRGASS
transcriptional activation domain activity: 27200

MEGRHISVIKQLYGLYWLDVWKISLQLWSEVKGMYHVLQQNLWIITLFPFFAA
transcriptional activation domain activity: 64000

GGDSVVDILFSQTSATEFVTVGGTGNVYHWDMEYSFSRNDDDNEDEVRVAAPE
transcriptional activation domain activity: 38300

KDEVMKIMPVQKQTRAGQRTRFKAFVVIGDSDGHVGLGVKCAKEVATAIRGAI
transcriptional activation domain activity: 61200

DNAQANAGGARGRRDDGAGTSKEDGEEEGAYEGDSEEDKKKRRKGRSKRRGGD
transcriptional activation domain activity: 48100

SMRDSASDQETSWELQMFKTENVPESTTLPAVDNNNLFDAVASPLADPLCDDI
transcriptional activation domain activity: 53300

GGEEEEGAPKRPAKKARPSVESEAEVKEEEEEEDAVKPKRGRRTAKSASSSRK
transcriptional activation domain activity: 27300

NELAVLVDGLNRVLLTHKDDIGIISHVMLAYMIAATRFKRLFVSGGGYMLFMP
transcriptional activation domain activity: 45800

PLLNGSAIISRLTTGVIGDRYGVLTCEVPVAFITGCLIFSMCVLLLIILHLVC
transcriptional activation domain activity: 21700

MLFLPSYSFSVFLFLFLLFALTVQVCLFLFTTWLVSCFDMYVFVWVGVCLCAR
transcriptional activation domain activity: 47700

CDNIYLQQDQCGYVLEHCMDATPGLFNYIQLYYCSSFRPLVFIFMCGWLLFLF
transcriptional activation domain activity: 54900

MVSCYIPLLIGFLGLVGPVLSRFFFLFSLFSWLIGRLVLYLILFLSSLCHGLG
transcriptional activation domain activity: 30300

EPAAEGAAGADKPAEEAKPAEDKPAETKPEETAEGAKTEETPAPAESAAAPAA
transcriptional activation domain activity: 37800

HSACDIYYDNICLRLRLEGDLESYSYTARIVVVVLQLERRPMRGVPFITLVFD
transcriptional activation domain activity: 29400

RRKRRERREEERGRDKQGEEGGGRKGGGNRKEGGGGRRGRRSRGGGGGGAEGA
transcriptional activation domain activity: 27800

KKKEEGKKRKRKRGKGRGRREKEERRKRGKEKGRRKERGKGKKKKESWGWRKG
transcriptional activation domain activity: 42000

SPFASAGQTGQSPFGGLNKASSPAFAGTGSGSTFGQASTLGGAFGKPAEPAAT
transcriptional activation domain activity: 32400

MYILTIIPFFKHMSFFSFFLSCFFMSLLIVLLLLLLLLFSLLLLLLFFFPRPL
transcriptional activation domain activity: 54400

GHGKLGYFTGKAVASIYRFILSSLHFASIFILLGKPTSSFGFIYLVIMLQFWC
transcriptional activation domain activity: 50200

DGNNSKPLSPGWTDQTAYNAFGITTGMFNTTTMDDVYNYLFDDEDTPPNPKKE
transcriptional activation domain activity: 61500

DDENEGSDTEAEAPAEKPKRGRKKAAPKEGADGEEEAPAAKKAAPRGRGKKAA
transcriptional activation domain activity: 6980

APFSKGPRMWNEVYITSLAHGCLVNRLFCSLAWCELYLIFGNIFRRLDLKLFV
transcriptional activation domain activity: 58100

RLLVTTYRMFFILVVTLNLIALALVTVGHFPYADNHIGVILLGNLLCAVMIRN
transcriptional activation domain activity: 29800

MAERNLTLFSSFFFFLLFFFFFFFFFLEDVFLFFLRMLFTFVGSWFFFFFSYL
transcriptional activation domain activity: 7100

AANKNAKRREARKKAAAAAGEGNEEDKGASAETKEDKSAEVKEKENVKPASEK
transcriptional activation domain activity: 29600

EAVESKPVKKAKGKPKKAIETPEPDAEESTGAEAVESKPVKRAKGKSKKAIKT
transcriptional activation domain activity: 53100

EEDEETSHEVRSKVYKLVKKSDGNQEWNDMGVETGSRRVLLRNSSTGKIVINF
transcriptional activation domain activity: 25400

EGRRASRRKARGKSGADTPGTSEDEGVGGTSKSKPRKKRKLERKSKDAGKFKS
transcriptional activation domain activity: 27600

LGVVFWCWCGLLGLKIQLYAGSYIKFRSVVIVMLIVLEIFEISINVSVCVIFH
transcriptional activation domain activity: 53000

NQLHRPPPEILKLFEASVRFEMQIRRLIAKDWLCVATWWLLKARATLANCNRH
transcriptional activation domain activity: 69100

TKGEFHKIAVIFTSTVVAGMVIMYFWILKQIPFMVGLVVWGWVGISQGFFAVN
transcriptional activation domain activity: 55800

KFPLFMLIAQGSFAFILWCFPFRSFLFIWALLMFTHTPLPSLLLLASCFSFSF
transcriptional activation domain activity: 60100

RFLLAALLLFGPLIGSCPSMSMSLMITEFGLFCCACLLGFVHHLFFPIFVESR
transcriptional activation domain activity: 47600

KASARKKRAPKKSDEGKRGEKEGNRSANGSNDEDDDRDSSSSSSSNDEATSRS
transcriptional activation domain activity: 11200

MAGAVPVLMLILLLLSHLCTAFKFYSESGFALVRKILLTALPTFEPHHYQMDG
transcriptional activation domain activity: 71600

FLGTAMYFLYGESVIYYFKHILLVDRILLPLATHHRFISFMLYIIGFVFFVFS
transcriptional activation domain activity: 51000

EAEDAPAAAVSIEEDAPVKEVEAPAPEPEVLEPEKPKEPSPTPVAAATKPAAP
transcriptional activation domain activity: 49100

GRTNVALPIYLFVFGELIDAYENRHIHHMDRIKMVLRMWFFKSIWKSFLQGAG
transcriptional activation domain activity: 56300

MFMTELLWGPGVRRLFLVFLFFISFPSLIPFFLSCLSFCTLLISLLCSFGTCA
transcriptional activation domain activity: 38500

MFSCLLFLAYLPAISLIPCDCFWVFFFFFFLGCVKTRVLYLFFFFLCCSWFFY
transcriptional activation domain activity: 47400

CHVLRMYTPYWILFPNDLIQLLKVIPALRCLHILSKGIRIIRWKPLPYLLWED
transcriptional activation domain activity: 51800

RPPVLRLRALTALITVLILLLAAIVVLYRFSERSLLYQTAFIYQAKIPYFNSI
transcriptional activation domain activity: 24500
